Reference: PMC11360004

Columns and labels:
[1] = target: Kelch-like ECH-associated protein 1 (Keap1), Cy3-labeled (UniProt Q14145); experiment: MST; Monolith NT.115; Cy3-labeled Keap1 at constant concentration, MNT titrated; 25 mM sodium phosphate, 150 mM NaCl, pH 8.0
[2] = target: α/β importin complex labeled with Cy3 (UniProt Q14974); experiment: MST; Cy3-labeled β-importin in the α/β importin complex at constant concentration, MNT titrated; 20 mM HEPES, 110 mM KCl, 5 mM NaHCO3, 5 mM MgCl2, 0.1 mM CaCl2, 1 mM EGTA, 1 mM DTT, pH 7.4
[3] = target: epidermal growth factor receptor (EGFR) on A431 cells (human (endogenous in A431)) (UniProt P00533); experiment: fluorescent-labeled ligand competitive binding on cells (plate reader); A431 cells fixed with 0.5% paraformaldehyde in 48-well plates; 25 nM Alexa-647-labeled MNT1 and different concentrations of MNTC or MNTN; DMEM with 1% BSA, 15 mM HEPES, pH 7.3, overnight at +4 °C

Chain of UniProt Q14145 (Q14145 whole entry): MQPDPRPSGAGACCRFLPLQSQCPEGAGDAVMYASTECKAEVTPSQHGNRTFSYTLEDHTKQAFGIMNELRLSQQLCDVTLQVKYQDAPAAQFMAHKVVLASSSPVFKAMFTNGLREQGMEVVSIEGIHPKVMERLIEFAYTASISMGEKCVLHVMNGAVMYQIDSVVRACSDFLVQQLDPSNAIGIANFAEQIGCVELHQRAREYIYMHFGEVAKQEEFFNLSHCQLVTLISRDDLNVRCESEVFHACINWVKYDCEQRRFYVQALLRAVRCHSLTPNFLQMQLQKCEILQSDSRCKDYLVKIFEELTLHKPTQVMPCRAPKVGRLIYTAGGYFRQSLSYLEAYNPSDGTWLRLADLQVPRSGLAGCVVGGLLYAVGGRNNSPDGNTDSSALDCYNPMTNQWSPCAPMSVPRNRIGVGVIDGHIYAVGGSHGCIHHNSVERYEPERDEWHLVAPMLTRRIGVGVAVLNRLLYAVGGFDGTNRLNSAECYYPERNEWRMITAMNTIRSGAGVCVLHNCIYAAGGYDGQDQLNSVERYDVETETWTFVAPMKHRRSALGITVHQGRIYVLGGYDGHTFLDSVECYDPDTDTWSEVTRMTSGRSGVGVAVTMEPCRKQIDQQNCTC
Chain of UniProt Q14974 (Q14974 whole entry, looked up, one chain of several): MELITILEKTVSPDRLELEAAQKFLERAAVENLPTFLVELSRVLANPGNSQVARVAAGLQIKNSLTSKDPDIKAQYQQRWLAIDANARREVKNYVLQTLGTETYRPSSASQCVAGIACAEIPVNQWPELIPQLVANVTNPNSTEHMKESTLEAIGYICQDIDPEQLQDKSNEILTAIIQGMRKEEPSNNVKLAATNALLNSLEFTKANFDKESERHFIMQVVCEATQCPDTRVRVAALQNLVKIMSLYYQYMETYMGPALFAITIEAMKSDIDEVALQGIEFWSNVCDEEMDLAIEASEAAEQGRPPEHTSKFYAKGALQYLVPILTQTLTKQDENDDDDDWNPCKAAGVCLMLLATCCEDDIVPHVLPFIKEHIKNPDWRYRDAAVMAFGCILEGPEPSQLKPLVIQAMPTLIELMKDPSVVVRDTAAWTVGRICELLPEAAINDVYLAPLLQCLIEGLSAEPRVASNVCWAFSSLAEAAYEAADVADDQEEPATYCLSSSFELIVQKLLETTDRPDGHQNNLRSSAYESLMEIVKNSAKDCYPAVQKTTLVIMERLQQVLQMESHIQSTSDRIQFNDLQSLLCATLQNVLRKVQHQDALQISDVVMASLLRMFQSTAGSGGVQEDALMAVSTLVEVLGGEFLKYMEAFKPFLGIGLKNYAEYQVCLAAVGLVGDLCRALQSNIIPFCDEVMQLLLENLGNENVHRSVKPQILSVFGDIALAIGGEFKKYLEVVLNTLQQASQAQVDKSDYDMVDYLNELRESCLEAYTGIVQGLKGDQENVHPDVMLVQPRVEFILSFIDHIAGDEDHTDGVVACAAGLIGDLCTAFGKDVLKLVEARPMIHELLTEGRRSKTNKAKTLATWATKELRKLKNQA

DTox-HMP-NLS-EGF (original modular nanotransporter with full-size HMP carrier module) (from UniProt P24232 1-396)
Kd [1]: 205 nM

DTox-HMPN-NLS-EGF (modular nanotransporter with the N-terminal fragment of HMP) (from UniProt P24232 1-136)
Kd [1]: 428 nM
Kd [2]: 160 nM
Kd [3]: 20 nM
